Measurements taken from patent US20110027907A1.

Experiments:
[1] = biological target: TfR-IgA Fc fusion protein, Leu258Ala mutant (Homo sapiens (Human)) (UniProt P01876); experiment: flow cytometry, FcαRI-Ig on CHOP cells expressing TfR-IgA Fc fusion
[2] = biological target: TfR-IgA Fc fusion protein, Leu257Ala mutant (Homo sapiens (Human)) (UniProt P01876); experiment: as above
[3] = biological target: TfR-IgA Fc fusion protein, Leu256Ala mutant (Homo sapiens (Human)) (UniProt P01876); experiment: as above
human serum IgA (human) = experiment: BIAcore, human serum IgA on CM5 chip, SSL7 mutant as analyte
[4] = biological target: human serum complement factor C5 (human) (UniProt P01031); experiment: cell-based or functional assay
[5] = biological target: TfR-IgA Fc fusion protein, Asn316Ala mutant (Homo sapiens (Human)) (UniProt P01876); experiment: flow cytometry, biotinylated rSSL7 on CHOP cells expressing TfR-IgA Fc fusion
[6] = biological target: TfR-IgA Fc fusion protein, Leu258Ala mutant (Homo sapiens (Human)) (UniProt P01876); experiment: as above
[7] = biological target: TfR-IgA Fc fusion protein, His317Ala mutant (Homo sapiens (Human)) (UniProt P01876); experiment: as above
[8] = biological target: TfR-IgA Fc fusion protein, Leu257Ala mutant (Homo sapiens (Human)) (UniProt P01876); experiment: as above
[9] = biological target: TfR-IgA Fc fusion protein, Leu256Ala mutant (Homo sapiens (Human)) (UniProt P01876); experiment: as above

TfR-IgA Fc fusion protein, Leu258Ala mutant (Homo sapiens (Human)), sequence (P01876 123-331 L139A limits assumed): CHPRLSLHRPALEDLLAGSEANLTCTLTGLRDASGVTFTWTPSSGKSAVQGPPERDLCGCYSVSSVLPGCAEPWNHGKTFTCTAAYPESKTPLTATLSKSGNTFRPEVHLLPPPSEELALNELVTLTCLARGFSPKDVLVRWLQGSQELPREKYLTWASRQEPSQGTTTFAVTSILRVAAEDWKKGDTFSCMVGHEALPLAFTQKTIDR
human serum complement factor C5 (human), sequence (P01031 19-673 limits assumed, chain 1 of 2): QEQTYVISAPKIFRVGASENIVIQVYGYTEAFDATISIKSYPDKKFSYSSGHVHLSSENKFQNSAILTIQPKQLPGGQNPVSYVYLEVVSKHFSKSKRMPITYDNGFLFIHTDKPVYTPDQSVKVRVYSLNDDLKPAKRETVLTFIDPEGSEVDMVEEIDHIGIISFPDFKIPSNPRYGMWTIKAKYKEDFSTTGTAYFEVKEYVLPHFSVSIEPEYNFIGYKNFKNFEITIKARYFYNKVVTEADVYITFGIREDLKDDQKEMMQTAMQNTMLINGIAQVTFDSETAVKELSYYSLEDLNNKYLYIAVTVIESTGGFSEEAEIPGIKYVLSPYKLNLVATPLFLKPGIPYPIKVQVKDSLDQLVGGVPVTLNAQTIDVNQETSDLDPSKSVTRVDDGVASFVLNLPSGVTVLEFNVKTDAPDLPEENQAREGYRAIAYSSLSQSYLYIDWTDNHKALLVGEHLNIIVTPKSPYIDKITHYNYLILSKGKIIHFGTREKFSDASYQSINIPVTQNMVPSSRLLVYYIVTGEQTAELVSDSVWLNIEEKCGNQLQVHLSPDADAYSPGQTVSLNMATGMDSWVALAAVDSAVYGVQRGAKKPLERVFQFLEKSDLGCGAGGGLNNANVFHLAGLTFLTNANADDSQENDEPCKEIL
human serum complement factor C5 (human), sequence (P01031 678-1676 limits assumed, chain 2 of 2): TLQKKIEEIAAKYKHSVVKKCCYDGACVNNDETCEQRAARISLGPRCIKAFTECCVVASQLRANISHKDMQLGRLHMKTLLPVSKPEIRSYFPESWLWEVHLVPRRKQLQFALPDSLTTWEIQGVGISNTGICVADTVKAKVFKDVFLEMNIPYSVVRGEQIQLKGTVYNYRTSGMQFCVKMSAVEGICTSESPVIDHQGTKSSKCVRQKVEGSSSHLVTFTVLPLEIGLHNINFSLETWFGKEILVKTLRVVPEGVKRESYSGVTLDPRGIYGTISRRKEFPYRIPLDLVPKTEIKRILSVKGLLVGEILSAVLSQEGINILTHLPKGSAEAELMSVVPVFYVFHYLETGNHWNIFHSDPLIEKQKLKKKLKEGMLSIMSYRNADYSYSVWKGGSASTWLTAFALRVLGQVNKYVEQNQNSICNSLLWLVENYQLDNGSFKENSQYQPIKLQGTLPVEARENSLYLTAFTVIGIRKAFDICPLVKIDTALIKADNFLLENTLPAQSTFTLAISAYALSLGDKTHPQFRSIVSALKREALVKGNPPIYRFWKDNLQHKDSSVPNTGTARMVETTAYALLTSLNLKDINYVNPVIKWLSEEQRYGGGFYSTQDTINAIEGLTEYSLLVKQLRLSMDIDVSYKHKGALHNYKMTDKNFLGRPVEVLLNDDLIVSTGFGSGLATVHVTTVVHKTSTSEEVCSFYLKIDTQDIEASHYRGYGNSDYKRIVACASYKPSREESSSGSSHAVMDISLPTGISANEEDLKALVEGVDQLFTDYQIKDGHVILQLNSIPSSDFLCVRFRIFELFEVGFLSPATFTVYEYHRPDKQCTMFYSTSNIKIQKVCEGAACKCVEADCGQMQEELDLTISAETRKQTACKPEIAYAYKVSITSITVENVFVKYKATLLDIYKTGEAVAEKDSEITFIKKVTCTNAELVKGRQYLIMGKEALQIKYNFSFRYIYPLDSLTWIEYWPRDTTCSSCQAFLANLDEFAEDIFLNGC
TfR-IgA Fc fusion protein, Leu257Ala mutant (Homo sapiens (Human)), sequence (P01876 123-331 L138A limits assumed): as the sequence (P01876 123-331 L139A limits assumed) above, with L16A, A17L counted along it
TfR-IgA Fc fusion protein, Leu256Ala mutant (Homo sapiens (Human)), sequence (P01876 123-331 L137A limits assumed): as the sequence (P01876 123-331 L139A limits assumed) above, with L15A, A17L counted along it
TfR-IgA Fc fusion protein, His317Ala mutant (Homo sapiens (Human)), sequence (P01876 123-331 H198A limits assumed): as the sequence (P01876 123-331 L139A limits assumed) above, with A17L, H76A counted along it
TfR-IgA Fc fusion protein, Asn316Ala mutant (Homo sapiens (Human)), sequence (P01876 123-331 N197A limits assumed): as the sequence (P01876 123-331 L139A limits assumed) above, with A17L, N75A counted along it

Row | Substance | Change (fold in KD against SSL7 wild-type) (human serum IgA (human)) [fold] | Kd (human serum IgA (human)) [nM] | other results
1 | FcαRI-Ig (from UniProt P24071 22-227) (Fc fusion) |  |  | fold reduction of binding against WT IgA Fc [1]: > 100 fold; fold reduction of binding against WT IgA Fc [2]: 2.3 fold; fold reduction of binding against WT IgA Fc [3]: 3.3 fold
2 | SSL7 mutant L79A | 91 | 100 | 
3 | SSL7 mutant N38T | 35 | 38 | 
4 | SSL7 mutant N83A | 4 | 4 | 
5 | SSL7 mutant P82A | 35 | 39 | 
6 | SSL7 mutant R44A | 3.2 | 3.6 | 
7 | SSL7 wild-type (haemolysis assay of FIG. 9) |  |  | haemolysis at 2 µM, % of the maximum lysis [4]: 10%; inhibition of haemolysis at 2 µM [4]: 90%
8 | recombinant SSL7 (GL1 S. aureus Greenlane), wild type |  |  | fold reduction of binding against WT IgA Fc [5]: 1.8 fold; fold reduction of binding against WT IgA Fc [6]: 6.5 fold; fold reduction of binding against WT IgA Fc [7]: 1.2 fold; fold reduction of binding against WT IgA Fc [8]: 15.4 fold; fold reduction of binding against WT IgA Fc [9]: 11.5 fold
